Test results from the nanobody polyreactivity screen of Harvey et al. (2022).

Assay: yeast display, Sf9 membrane polyspecificity reagent, FACS + sequencing; frameworks hold sequencing errors
How it was run: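 Galactose-induced (36–48 hours) yeast carrying a synthetic nanobody display library were exposed to 10% biotinylated, detergent-solubilized Sf9 membrane reagent at 4 °C for 1 hour. FACS followed streptavidin microbead enrichment, using low and high (top ~1%) gates for expression (anti-HA) and reagent binding (streptavidin). Colony PCR, MiSeq 2 × 250 sequencing and CDR-length filtering followed. Labels for polyreactivity reflect the gate of origin.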

Sequence	polyreactivity (PSR sort gate)
QVQLVESGGGLVQAGGSLRLSCAASGSTFPANAMGWYRQAPGKERELVATISWSGGRTYYADSVKGRFTISRDNAKNTVYLQMNSLKPEDTAVYYCAANGHGRVYFGGGNWGQGTQVTVSS	high polyreactivity
QVQLVESGGGLVQAGGSLRLSCAASGSTFPAYAMGWYRQAPGKERELVAAINTSGGNTYYADSVKGRFTISRDNAKNTVYLQMNSLKPEDTAVYYCAADYKARYSEKFDYWGQGTQVTVSS	low polyreactivity
QVQLVESGGGLVQAGGSLRLSCAASGSTFPFYAMGWYRQAPGKERELVAAITASVGNTYYADSVKGRFTISRDNAKNTVYLQMNSLKPEDTAVYYCNADEWYTYIPDFDYWGQGTQVTVSS	low polyreactivity
QVQLVESGGGLVQAGGSLRLSCAASGSTFPGNAMGGSRQAAGKERELVASISGGGDSTYYADSVKGRFTISRDNAKNTVYLQMNSRKPEDTAVYYCAADYRQEPGYTGYYYWGQGTQVTVSS	low polyreactivity
QVQLVESGGGLVQAGGSLRLSCAASGSTFPGNAMGGYRQAPGKERELVAAINWSGDSTYYADSVKGRFTISRDNAKNTVYLQMNSLKPEDTAVYYCAAYGDGYYYWGQGTQVTVSS	low polyreactivity
QVQLVESGGGLVQAGGSLRLSCAASGSTFPGNAMGWYRQAPGKERELVAAIRDRGTSTYYADSVKGRFTISRDNAKNTVYLQMNSLNPEDTAVYYCAARSFTADLGYYWGQGTQVTVSS	high polyreactivity
QVQLVESGGGLVQAGGSLRLSCAASGSTFPGYAMGWYRQAPGKDRELVAAISKRGGSTRYADSVKGRFTISRDKAKNTVYLQMNSLKPEDTAVYYCNAVYTKRYKYYYTSGYWGQGTQVTVSS	high polyreactivity
QVQLVESGGGLVQAGGSLRLSCAASGSTFPGYAMGWYRQAPGKERELVAAISWSGGNTYYADSVKGRFTISRDNAKNTVYLQMNSLKPEDTAVYYCNAAGRRYKFDYWGQGTQVSVSS	high polyreactivity
QVQLVESGGGLVQAGGSLRLSCAASGSTFPGYAMGWYRQAPGKERELVASITSSGDNTYYADSVKGRFTISRDNAKNSVYLQMNSLKPEDTAVYYCAAPTKYRSRRYYWGQGTQVTVSS	high polyreactivity
QVQLVESGGGLVQAGGSLRLSCAASGSTFPHNPMGCYRQAPGKERELVAAISSIGVRTYYADSVKGRFTISRDNAKNTVYLQMNSLKPEDTAVYYCAARQSQGDRYYYWGHGTQVTVSS	high polyreactivity
QVQLVESGGGLVQAGGSLRLSCAASGSTFPKNAMGWYRQAPGKERELVAAINTGGSTYYADSVKGRFTISLDNAKYTVYLQMNSLKPEDTAVYYCAARDNYHRDVGHPYDYWGQGTQVTVSS	low polyreactivity
QVQLVESGGGLVQAGGSLRLSCAASGSTFPKNVMGWYRQAPGKERELVAAINYSGTSTYYADSVKGRFTISRDNAKNTVYLQMNSLKPEDTAVYYCAARFPLVRYNYWGQGTQVTVSS	high polyreactivity
QVQLVESGGGLVQAGGSLRLSCAASGSTFPKYAMGWYRQAPGKERELVASISVTTGSTYYADSVKGRFTISRDNAKNTVYLQMNSLKPEDTAVYYCAVGRTVAHRFIAGDYWGQGTQVTVSS	high polyreactivity
QVQLVESGGGLVQAGGSLRLSCAASGSTFPLNAMAWYRHAPGKERELVAAITWSGANTYYADSVKGRFTISRDNAKNTVYLQMNSLKPEDTAVYYCAAGSYAGFAVIGYYYWGQGTQVTVSS	low polyreactivity
QVQLVESGGGLVQAGGSLRLSCAASGSTFPLYAMGRYRQAPGKERELVAAITSGGGNTYYADSLKGRFTISRDNAKNTVYLQMNSLKPEDTAVYYCAAVGGYKSYYSYEYDYWGQGTQVTVSS	low polyreactivity
QVQLVESGGGLVQAGGSLRLSCAASGSTFPLYAMGWYRQAPGKERELVAAITTGGGNTYYADSVKGRFTISRDNAKNTVYLQLNSLTPEDTAVYYCAKPYHIGLSGRRTYDYWGQGTQVTVSS	high polyreactivity

Sequence	polyreactivity (PSR sort gate)
QVQLVESGGGLVQAGGSLRLSCAASGSTFPPNAMGWYRQAPGKERELVAAISASGGRTYYADSVKGRFTISRDNAKNTVYLQMNSLKPEDTAVYYCNARGGRYGRGSSDQLDYYWGQGTQVTVSS	high polyreactivity
QVQLVESGGGLVQAGGSLRLSCAASGSTFPPNAMGWYRQAPGKERELVADSSDSSTYYADSVKGRFTISRDNAKNTVYLQMNSLKPEDTAVYYCAAADAGLRSKSYGQQYDYWGQGTQVTVSS	low polyreactivity
QVQLVESGGGLVQAGGSLRLSCAASGSTFPPYAMGWYRQAPGKERELVAAISWSGSGSTYYADSVKGRFTISRDNAKNTVYLQMNSLKPEDTAVYYCAAGYVRVITPAYYYWGQGTQVTVSS	low polyreactivity
QVQLVESGGGLVQAGGSLRLSCAASGSTFPPYVIGWYRPAPGKERELVAAITWSSGSTYYADSVKGRFTISRDNAKNTVYLQMNSLKPEDTAVYYCAARAYRWGQGTQVTVSS	low polyreactivity
QVQLVESGGGLVQAGGSLRLSCAASGSTFPPYVMGWYRQAPGKERELVAAISRGGGSTYYADSVKGRFTISRDNAKNTVYLQMNSLKPEDTAVYYCAAKNVYHDDYWGQGTQVTVSS	high polyreactivity
QVQLVESGGGLVQAGGSLRLSCAASGSTFPQNDMGWYRQAPGKERELVAAITRSAGSTYYADSVKGRFTISRDNAKNTVYLQMNSLKPEDTAVYYCNTGRQRGDGWGQGTQVTVSS	high polyreactivity
QVQLVESGGGLVQAGGSLRLSCAASGSTFPQNVMGWYRQAPGKERELVAAITRSAGSTYYADSVKGRFTISRDNAKNTVYLQMNSLKPEDTADYYCNTGRQRGDCWGQGTQVTVSS	high polyreactivity
QVQLVESGGGLVQAGGSLRLSCAASGSTFPQYAMGWYRQAPGKERELVAAISARGDSTSYADSVKGRFTISRDNAKNTVYLQMNSLKPEDTAVYYCNAPSRNGFSVTDTPDGYDYWGQGTQVTVSS	low polyreactivity
QVQLVESGGGLVQAGGSLRLSCAASGSTFPRNDMGWYRQAPGKERELVAAISRGGSTNYADSVKGRFTISRDNAKNTVYLQMNSLKPEDTAVYYCAAQIFECAYGMDYWGQGTQVTVSS	low polyreactivity
QVQLVESGGGLVQAGGSLRLSCAASGSTFPRNDMGWYRQAPGKERELVAAISRGGSTNYADSVKGRFTISRDNAKNTVYLQMNSLKPEDTAVYYCAAQIIESAYGMDYWGQGTQVTVSS	low polyreactivity
QVQLVESGGGLVQAGGSLRLSCAASGSTFPRYAMGWFRQAPGKEREFVAAISRRGGSTYYADSVKGRFTISRDNAKNTVYLQMNSLKPEDTAVYYCANRVRTGSVGNFNYWGQGTQVTVSS	high polyreactivity
QVQLVESGGGLVQAGGSLRLSCAASGSTFPRYAMGWYRPAPGKERELVAAISSSGRTYYADSVKGRFTISRDNAKNTVYLQMNSLNPEDTAVYYCNAPVARGEASYYWGQGTQVTVSS	high polyreactivity
QVQLVESGGGLVQAGGSLRLSCAASGSTFPRYAMGWYRQAPGKERELVATITSGGSTYYADSVKGCFTISRDNAKNTFYLQMNSLKPEDTAVYYCAAGYRWTYTSGTYIRYNYWGQVTQVTVSS	high polyreactivity
QVQLVESGGGLVQAGGSLRLSCAASGSTFPSNAMGWYRQAPGKERELVAAISSGGRTYYADSVKGRFTISRDNAKNTVYLQMKSLKPEDTAVYYCAADTDRRSPFDYWGQGTQVTVSS	high polyreactivity
QVQLVESGGGLVQAGGSLRLSCAASGSTFPSYAMGGYRPAPGKERELVAAINRSGGSTYYADSVKGRFTISRDNAKNTVYLQMNSLKPEDTAVYYCATGLTTGGGYYWGQGTQVTVSS	high polyreactivity
QVQLVESGGGLVQAGGSLRLSCAASGSTFPSYAMGWYRQAPGKERELVAAITRSGGRTYYADSVKGRFTISRDNAKNTVYLQMNSLKPEDTAVYYCAADLGRNYDYWGQGTQVTVLS	low polyreactivity
